Data published in the supplement of paper PMC10567573.

B1: ANKRD44 (parent)
chain: FHCIETLVTTGANVNETDDWGRTA
B2: RAB11B (parent)
chain: AVPTDEARAFAEKNNLSFIETSAL

Variants of: B1
Assay: protein stability index of a GFP-peptide fusion (GPS, HEK-293T) (PSI 1-6); higher = more stable
Details: c terminus: a fixed tail appended
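Also: lentivirally expressed fusions sorted by FACS into six bins by GFP to DsRed ratio, PSI derived from sequencing read proportions per bin multiplied by bin number.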

In order of rising protein stability index:
1. FHCIETLVTTGANVNETDDWGRTW [A24W]  1.16
2. FHCIETLVTTGANVNETDDWGRMA [T23M]  1.38
3. FHCIETLVTTGANVNETDDWGWTA [R22W]  1.49
4. FHCIETLVTTGANVNETDDWGRWA [T23W]  1.56
5. FHCIETLVTTGANVNETDDWGFTA [R22F]  1.65
6. FHCIETLVTTGANVNETDDWNRTA [G21N]  1.68
7. FHCIETLVTTGANVNETDDWGCTA [R22C]  1.76
8. FHCIETLVTTGANVNETDDWGRTY [A24Y]  1.78
9. FHCIETLVTTGANVNETDDWGRYA [T23Y]  1.83
10. FHCIETLVTTGANVNETDDWGRIA [T23I]  1.86
11. FHCIETLVTTGANVNETDDWFRTA [G21F]  1.87
12. FHCIETLVTTGANVNETDDWGRCA [T23C]  1.87
13. FHCIETLVTTGANVNETDDWGGTA [R22G]  1.88
14. FHCIETLVTTGANVNETDDWGRTI [A24I]  1.88
15. FHCIETLVTTGANVNETDDWSRTA [G21S]  1.89
16. FHCIETLVTTGANVNETDDWGITA [R22I]  1.9
17. FHCIETLVTTGANVNETDDWGRLA [T23L]  1.91
18. FHCIETLVTTGANVNETDDWGRTL [A24L]  1.91
19. FHCIETLVTTGANVNETDDWYRTA [G21Y]  1.92
20. FHCIETLVTTGANVNETDDWGYTA [R22Y]  1.95
21. FHCIETLVTTGANVNETDDWPRTA [G21P]  1.98
22. FHCIETLVTTGANVNETDDWGHTA [R22H]  1.98
23. FHCIETLVTTGANVNETDDWGRTC [A24C]  1.98
24. FHCIETLVTTGANVNETDDWGRTV [A24V]  2.01
25. FHCIETLVTTGANVNETDDWGRTN [A24N]  2.03
26. FHCIETLVTTGANVNETDDWMRTA [G21M]  2.04
27. FHCIETLVTTGANVNETDDWGRRA [T23R]  2.05
28. FHCIETLVTTGANVNETDDWGRTG [A24G]  2.05
29. FHCIETLVTTGANVNETDDWGRFA [T23F]  2.06
30. FHCIETLVTTGANVNETDDWGRTQ [A24Q]  2.06
31. FHCIETLVTTGANVNETDDWGRTS [A24S]  2.06
32. FHCIETLVTTGANVNETDDWLRTA [G21L]  2.12
33. FHCIETLVTTGANVNETDDWGRPA [T23P]  2.13
34. FHCIETLVTTGANVNETDDWGRVA [T23V]  2.14
35. FHCIETLVTTGANVNETDDWGRNA [T23N]  2.17
36. FHCIETLVTTGANVNETDDWQRTA [G21Q]  2.21
37. FHCIETLVTTGANVNETDDWGRTT [A24T]  2.21
38. FHCIETLVTTGANVNETDDWIRTA [G21I]  2.24
39. FHCIETLVTTGANVNETDDWGRQA [T23Q]  2.24
40. FHCIETLVTTGANVNETDDWGRTF [A24F]  2.24
41. FHCIETLVTTGANVNETDDWTRTA [G21T]  2.25
42. FHCIETLVTTGANVNETDDWGRKA [T23K]  2.26
43. FHCIETLVTTGANVNETDDWVRTA [G21V]  2.27
44. FHCIETLVTTGANVNETDDWGMTA [R22M]  2.27
45. FHCIETLVTTGANVNETDDWGRAA [T23A]  2.27
46. FHCIETLVTTGANVNETDDWGRTE [A24E]  2.27
47. FHCIETLVTTGANVNETDDWGVTA [R22V]  2.29
48. FHCIETLVTTGANVNETDDWGRSA [T23S]  2.31
49. FHCIETLVTTGANVNETDDWHRTA [G21H]  2.32
50. FHCIETLVTTGANVNETDDWGNTA [R22N]  2.35
51. FHCIETLVTTGANVNETDDWGKTA [R22K]  2.36
52. FHCIETLVTTGANVNETDDWGRTR [A24R]  2.37
53. FHCIETLVTTGANVNETDDWGRTH [A24H]  2.39
54. FHCIETLVTTGANVNETDDWGRTM [A24M]  2.39
55. FHCIETLVTTGANVNETDDWKRTA [G21K]  2.42
56. FHCIETLVTTGANVNETDDWGRGA [T23G]  2.42
57. FHCIETLVTTGANVNETDDWGRHA [T23H]  2.42
58. FHCIETLVTTGANVNETDDWGTTA [R22T]  2.46
59. FHCIETLVTTGANVNETDDWGRTK [A24K]  2.46
60. FHCIETLVTTGANVNETDDWWRTA [G21W]  2.48
61. FHCIETLVTTGANVNETDDWRRTA [G21R]  2.5
62. FHCIETLVTTGANVNETDDWGLTA [R22L]  2.5
63. FHCIETLVTTGANVNETDDWGRTP [A24P]  2.63
64. FHCIETLVTTGANVNETDDWGATA [R22A]  2.64
65. FHCIETLVTTGANVNETDDWGQTA [R22Q]  2.7
66. FHCIETLVTTGANVNETDDWGSTA [R22S]  2.71
67. FHCIETLVTTGANVNETDDWGRDA [T23D]  2.71
68. FHCIETLVTTGANVNETDDWGREA [T23E]  2.71
69. FHCIETLVTTGANVNETDDWGRTD [A24D]  2.74
70. FHCIETLVTTGANVNETDDWGETA [R22E]  2.91
71. FHCIETLVTTGANVNETDDWGPTA [R22P]  3.06
72. FHCIETLVTTGANVNETDDWGDTA [R22D]  3.09

Variants of: B2
Assay: as above
Details: c terminus: a fixed tail appended

In order of rising protein stability index:
1. IVPTDEARAFAEKNNLSFIETSAL [A1I]  2.07
2. RVPTDEARAFAEKNNLSFIETSAL [A1R]  2.26
3. WVPTDEARAFAEKNNLSFIETSAL [A1W]  2.26
4. CVPTDEARAFAEKNNLSFIETSAL [A1C]  2.43
5. AAPTDEARAFAEKNNLSFIETSAL [V2A]  2.55
6. KVPTDEARAFAEKNNLSFIETSAL [A1K]  2.57
7. VVPTDEARAFAEKNNLSFIETSAL [A1V]  2.62
8. QVPTDEARAFAEKNNLSFIETSAL [A1Q]  2.63
9. MVPTDEARAFAEKNNLSFIETSAL [A1M]  2.64
10. SVPTDEARAFAEKNNLSFIETSAL [A1S]  2.65
11. FVPTDEARAFAEKNNLSFIETSAL [A1F]  2.66
12. LVPTDEARAFAEKNNLSFIETSAL [A1L]  2.67
13. YVPTDEARAFAEKNNLSFIETSAL [A1Y]  2.69
14. TVPTDEARAFAEKNNLSFIETSAL [A1T]  2.74
15. NVPTDEARAFAEKNNLSFIETSAL [A1N]  2.88
16. HVPTDEARAFAEKNNLSFIETSAL [A1H]  2.9
17. DVPTDEARAFAEKNNLSFIETSAL [A1D]  2.95
18. PVPTDEARAFAEKNNLSFIETSAL [A1P]  3.02
19. ACPTDEARAFAEKNNLSFIETSAL [V2C]  3.02
20. GVPTDEARAFAEKNNLSFIETSAL [A1G]  3.06
21. ADPTDEARAFAEKNNLSFIETSAL [V2D]  3.41
22. EVPTDEARAFAEKNNLSFIETSAL [A1E]  3.65
